According to publication PMC5595413:
“And” between values parts separate entries of the source, which are not always exact repeats. Equal entries are not always repeated.

Tests used:
[1] = target: C41S SqrR (R. capsulatus); test: SEC + cross-linking
[2] = target: C107S SqrR (R. capsulatus); test: SEC + cross-linking

Substance | stoichiometry N [1] | stoichiometry N [2]
C41S SqrR (natural protein) | 2 | –
C107S SqrR (natural protein) | – | 2 and 4
